This note sets out measurements from the supplement of paper PMC9170038.

The data set deals with MS2 coat protein. Briefly: apparent KD of MS2 coat protein; designed switch direction (-1 OFF switch, 1 ON switch): -1; higher = weaker reporter binding. The essentials:
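The apparent KD reported per design is the median over clusters of curve fits to normalised cluster fluorescence. The RNA switches were transcribed on Illumina chips by stalled E. coli RNA polymerase. SNAP-549-labelled MS2 coat protein was titrated from 0.7 or 1.5 nM, doubling up to 3 µM, in Tris-HCl pH 7.5 buffer containing KCl, MgCl2, BSA, DTT, tRNA and Tween-20, with no input, 200 uM small-molecule ligand, or an oligonucleotide input.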

[1] abbreviates: input ligand: microRNA oligo, concentration not stated.
Where [2] appears, read: Eterna round: R95, input ligand: microRNA oligo, concentration not stated.
Where [3] appears, read: Eterna round: R95, input ligand: FMN 200 uM.
The mark [4] stands for this setting: Eterna round: R95, input ligand: none.

Take “AUUUAGCAAGUUAGAUCCUACAUGAGGAUCACCCAUGUUGUUCGUCUCAUUUGAAGACAACACAAAAGUGUUGUCUU [Omei Mir OFFv1 B4] (Eterna round: R97, puzzle: Sensor, turn-off variant 1)”: the “apparent KD of MS2 coat protein” value amounted to 112 nM (input ligand: FMN 200 uM) and 126 nM (input ligand: none).

In the case of “AUUUAGCGAGGAUAUACCAACGUGAUCUUCGACUGAGCGGCACUUGAGGAUCACCCAAGUAGAAGGCGCACUAU [Onleindian] (Eterna round: R97, puzzle: Exclusion 2)”, the “apparent KD of MS2 coat protein” value (input ligand: FMN 200 uM) is 346 nM and the “apparent KD of MS2 coat protein” value (input ligand: none) came to 207 nM.

As to “AUUUGCACGCUGCGGUCCUACAUGAGGAUCACCCAUGUGGUCUGGUGGCGUGGGUCGCCGGACUUGGCUCGUCUUGU [salish99_S_TOV1_R5_033] (Eterna round: R97, puzzle: Sensor, turn-off variant 1)”, the “apparent KD of MS2 coat protein” value reads like this: (input ligand: FMN 200 uM) 18.7 nM; (input ligand: none) 19.5 nM.

With “AUUUUAUAUGAAGGAUAUACUUAACAUGAGGAUCACCCAUGUGGUGUUGUGAGUGAGUGAGUUUAGUAGAAGGUCAAUUAUUUU [JMF's solution 32] (Eterna round: R96, puzzle: Exclusion NG 2)”, the “apparent KD of MS2 coat protein” value came out at 781 nM (input ligand: FMN 200 uM), 167 nM under setting [1] and 257 nM (input ligand: none).

In the case of “AUUUUGUCAGGAUAUGAGUAGUAGGAUGAGAGUGCUACUACUUAGAAGGGACAUGAGGAUCACCCAUGUCUUCC [Bring Us a Shrubbery-06] (puzzle: Exclusion 4)”, the “apparent KD of MS2 coat protein” value under setting [2] was determined as 13.8 nM.

On to “AUUUUGUGAGGAUAUGUGGCUUCGAUCGUAAAAACGAGGCUACAGAAGGCACAUGAGGAUCACCCAUGUUCCUA [salish99_ex4_r4_119] (Eterna round: R97, puzzle: Exclusion 4)”, for which the “apparent KD of MS2 coat protein” value (input ligand: FMN 200 uM) stood at 194 nM and the “apparent KD of MS2 coat protein” value (input ligand: none) came out at 24 nM.

For “CAAAACCUAGGAUAUACAUGAGGAUCACCCAUGUCGGGCCUACGCGAAACGCGCCUCAGUAGAAGGAGGGAAAC [Riri] (puzzle: Exclusion 3)”, the “apparent KD of MS2 coat protein” value is, setting by setting: under setting [3], 180 nM; under setting [2], 46.8 nM; under setting [4], 70.5 nM.

With “CAAAAGGUAGGAUAUACGAAAAAAAAGGGUAGAAAAAAAACACAUGAGGAUCACCCAUGUAGAAGGACCAAAAG [salish99_ex2_r3_053] (puzzle: Exclusion 2)”, the “apparent KD of MS2 coat protein” value reads like this: under setting [3], 71.2 nM; under setting [2], 24.9 nM; under setting [4], 22.2 nM.

In the case of “CAAGAAAAGAAAGGAUAUAGCGCGGAGCCGCAGCUAGAAGGUUCGGUGGGUAUCCUGUAACAUGAGGAUCACCCAUGUAAAGAG [Texelara] (Eterna round: R96, puzzle: Exclusion NG 1)”, the “apparent KD of MS2 coat protein” value by setting is: (input ligand: FMN 200 uM) 499 nM; under setting [1], 109 nM; (input ligand: none) 527 nM.

As to “CAAUAUUACUGAGGAUAUCCUAUUGUAUUUCAGGGAGAAGGCAGACUCAACAUGAGGAUCACCCAUGUAAGACGGGUACUAGAU [Ex NG1 #18] (Eterna round: R96, puzzle: Exclusion NG 1)”, the “apparent KD of MS2 coat protein” value is 97 nM (input ligand: FMN 200 uM), 77.4 nM under setting [1] and 98.2 nM (input ligand: none).

As to “CACAAGCUUUUUUGUUGCUUUUUAGUUGGUGUAUGAUAAACAUGAGGAUCACCCAUGUAAUAGAUGCUCGAUCUUUU [JR_SV3TOV2_Sub083] (puzzle: Sensor v3, turn-off variant 2)”, the “apparent KD of MS2 coat protein” value was 24.5 nM under setting [3], 21.7 nM under setting [2] and 27 nM under setting [4].

Take “CACCGUUACAGAGGAUAUGGUACAUGAGGAUCACCCAUGUAAUAAAUGAGAAUUUCGAAUGUAAUCCAGAAGGCUGGAAUCGGC [Ostricism 74 - Jieux - Exclusion NG 2] (Eterna round: R96, puzzle: Exclusion NG 2)”: the “apparent KD of MS2 coat protein” value reads like this: (input ligand: FMN 200 uM) 228 nM; under setting [1], 85.2 nM; (input ligand: none) 96.3 nM.

“CACCGUUACCGAGGAUAUCGUACAUGAGGAUCACCCAUGUAAUAAAUGAGAAUUUCGGAUGUAUGCGAGAAGGCGGGAAUCGGC [Ostracism 35 - Jieux - Exclusion NG 2] (Eterna round: R96, puzzle: Exclusion NG 2)”: the “apparent KD of MS2 coat protein” value under setting [1] was 24.8 nM.

As for “CACCGUUAGCGAGGAUAUCGUACAUGAGGAUCACCCAUGUAAUAAAUGAGAAUUUCGGAUGUAUGCGAGAAGGCGCGAAUCGGC [Ostracism 34 - Jieux - Exclusion NG 2] (Eterna round: R96, puzzle: Exclusion NG 2)”, under setting [1], the “apparent KD of MS2 coat protein” value came out at 36.6 nM.

Regarding “CACCUGAACACAGGAUAUCCUACAUGAGGAUCACCCAUGUAAUAAAUGAGAAUUUCGAAUGUAAUGGAGAAGGGUGGAUAAGGC [Ostracism 89 - Jieux - Exclusion NG 2] (Eterna round: R96, puzzle: Exclusion NG 2)”, the “apparent KD of MS2 coat protein” value is, setting by setting: (input ligand: FMN 200 uM) 137 nM; under setting [1], 81.2 nM; (input ligand: none) 97.2 nM.

“CACCUGAAUACAGGAUAUCCUACAUGAGGAUCACCCAUGUAAUAAAUGAGAAUUUCGAAUGUAAUGGAGAAGGGUAGAUAAGGC [Ostracism 88 - Jieux - Exclusion NG 2] (Eterna round: R96, puzzle: Exclusion NG 2)”: the “apparent KD of MS2 coat protein” value is, setting by setting: (input ligand: FMN 200 uM) 125 nM; under setting [1], 82.8 nM; (input ligand: none) 86.6 nM.

For “CACGAGCUAGGAUAUACAUGAGGAUCACCCAUGUAAGUCAUGCGGUCACAUCUGACAGGUAGAAGGAGCGCGUC [Teaertete] (puzzle: Exclusion 3)”, the “apparent KD of MS2 coat protein” value under setting [2] is 37.5 nM.

“CACUAACAUGAGGAUCACCCAUGUUAGGAUAUGCAGUUCGGCCAACGGGCCCGAACAUGUAGAAGGAACAGGGU [Eternabot (L2) Solution 44] (Eterna round: R97, puzzle: Exclusion 1)”: the “apparent KD of MS2 coat protein” value was found to be 81.3 nM (input ligand: FMN 200 uM) and 25.8 nM (input ligand: none).

For the sequence “CACUUACAUGAGGAUCACCCAUGUGAGGAUAUCGUGACCUGACGAGAAGUCAAUGUCACGAGAAGGUACAUGGG [Exclusion 1 (Mod 1 solution 97 by Eternabot)] (Eterna round: R97, puzzle: Exclusion 1)”, the “apparent KD of MS2 coat protein” value (input ligand: FMN 200 uM) stood at 59.3 nM and the “apparent KD of MS2 coat protein” value (input ligand: none) was 68.2 nM.

For “CAGAAACAUGAGGAUCACCCAUGUGAGGAUAUGAAAAAGAAAAGAAAAGAAAGAAGAAUCAGAAGGCACAAAGU [salish99-ex1_r3_086] (puzzle: Exclusion 1)”, the “apparent KD of MS2 coat protein” value is, setting by setting: under setting [3], 36.8 nM; under setting [2], 32.4 nM; under setting [4], 35.7 nM.

As for “CAGACACAUGAGGAUCACCCAUGUGAGGAUAUGCGUACGUUGUCCGUAGGCGACGUGCGCAGAAGGCGCAUAGG [JL-ex1-3.11 Eli mod] (puzzle: Exclusion 1)”, the “apparent KD of MS2 coat protein” value by setting is: under setting [3], 51.7 nM; under setting [2], 74.3 nM; under setting [4], 50.1 nM.

In the case of “CAGACGGCCGUAGGAUAUGCAGCAAAGACGUGAGCAGAAGGACGAUACAUGAGGAUCACCCAUGUACGUGGGUAGUGCGCAUGC [Veustean] (Eterna round: R96, puzzle: Exclusion NG 1)”, the “apparent KD of MS2 coat protein” value runs as follows: (input ligand: FMN 200 uM) 19.8 nM; under setting [1], 14.4 nM; (input ligand: none) 20.8 nM.

With “CAGCUGAAAGUGAGGAUAUCUAGAGCCUCGGCUCUAGAGAAGGCACAUGAGGAUCACCCAUGUGAUCACAGCUG [BmEx4/7-A2] (Eterna round: R97, puzzle: Brourd's mod of Exclusion 4)”, the “apparent KD of MS2 coat protein” value was 1320 nM (input ligand: FMN 200 uM) and 307 nM (input ligand: none).

In the case of “CAGGACAGAGGAUAUACAUAGAUACAGAUUCAUGUAGAACUACAUGAGGAUCACCCAUGUAGAAGGCUGUCCUG [Fiskers Ex 2 - 3] (Eterna round: R96, puzzle: Exclusion 2)”, the “apparent KD of MS2 coat protein” value was 370 nM (input ligand: FMN 200 uM), 25 nM under setting [1] and 33.5 nM (input ligand: none).

As for “CAGGACAGAGGAUAUACAUAGAUACAGAUUCAUGUAGAACUACAUGAGGAUCACCCAUGUAGAAGGCUGUCCUG [Fiskers Ex 2 - 3] (puzzle: Exclusion 2)”, under setting [2], the “apparent KD of MS2 coat protein” value came out at 27.8 nM.

In the case of “CAGUACUACAAGCUAUGGGACAUGAGGAUCACCCAUGUUCGUCUUAUUGAUCUAGGUACGCUGACGUACCUAGAUCU [JL-sv1-2.19 Brourd mod] (puzzle: Sensor v3, turn-off variant 1)”, the “apparent KD of MS2 coat protein” value under setting [3] was 16.9 nM, the “apparent KD of MS2 coat protein” value under setting [2] worked out at 27.8 nM and the “apparent KD of MS2 coat protein” value under setting [4] worked out at 15.9 nM.

As to “CAGUACUACAAGCUUGGGAACAUGAGGAUCACCCAUGUUCGUCUUAUUGAUCUAGGUACGCUGACGUACCUAGAUCU [JL-sv1-2.17 Brourd mod] (puzzle: Sensor v3, turn-off variant 1)”, the “apparent KD of MS2 coat protein” value under setting [3] was 16.5 nM, the “apparent KD of MS2 coat protein” value under setting [2] was 27.1 nM and the “apparent KD of MS2 coat protein” value under setting [4] is 14.7 nM.

As to “CAGUACUGAGGAUAUACAUGAGGAUCACCCAUGUCUUCCAGCUAGGAUACUAGCAAAUGUAGAAGGCAGUACUG [Mat - Exclusion 3 - Eli Mod - D9] (Eterna round: R97, puzzle: Exclusion 3)”, the “apparent KD of MS2 coat protein” value (input ligand: FMN 200 uM) is 428 nM and the “apparent KD of MS2 coat protein” value (input ligand: none) is 68.1 nM.

Turning to “CAGUACUGAGGAUAUACAUGAGGAUCACCCAUGUGAAAUGCAUAGGAAACUAUGCUAUGUAGAAGGCAGUACUG [Eli x3 4.03] (Eterna round: R97, puzzle: Exclusion 3)”, the “apparent KD of MS2 coat protein” value runs as follows: (input ligand: FMN 200 uM) 108 nM; (input ligand: none) 18.5 nM.

Consider “CAGUACUGAGGAUAUACAUGAGGAUCACCCAUGUGCUCUAGCUAGGAUACUAGCAUUAGUAGAAGGCAGUACUG [Fiskers Ex 3 828 mod 8] (Eterna round: R96, puzzle: Exclusion 3)”, for which the “apparent KD of MS2 coat protein” value runs as follows: (input ligand: FMN 200 uM) 132 nM; under setting [1], 14.4 nM; (input ligand: none) 19.7 nM.
